The data set can be described thus: soluble fraction after stress (log2 fold change); higher = more stays soluble; pooled small domains, quantitative proteomics. Conditions: stress: 75 degC.
For “HMDTPMYMAIIEEVRFQIANEILKEGEQLPSIRNLAKTLKVSVITVKRAYKELEEAGYITTIPAKGSKVS”, the “soluble fraction (log2)” value was -1.16. The figure for “HMDTQKYDLNDDGRFDVQDVTYLQIKIAGDGELTDNQKKIADYNNDGKIDVQDVTSAQMLIS” is 0.023; for “HMDTSADEVKQLIASFVEQEDKRKPLSDQKIVELLAEKEQKISRRTVAKYRDALNIPSSSKRKRF” it is 0.469. On to “HMDTSISHLVGRTGEAVTDLRPAGTVMIDGELYDARATEGFIEKGEIVKAIKYQYGQLNVRRVSK”, for which the “soluble fraction (log2)” value worked out at 0.00609.

Consider “HMDTVSYSTLLRDIDAKEIKQLDLVPGRREVRVQYNDGRRVTVPVFANDNQILRAAESSGTPLTVV”, for which the “soluble fraction (log2)” value was determined as 0.0297. Then “HMDVADITGTRKAAILLLTMDEELSKELLKEFERHEIEAIGKEIANIKYIPENIVKQVHSEFLKNINKS”, with -0.282; and “HMDVFTAKTASHIQELREKLGQQAVFGRSDVQNALGLKATRSSALLREMAEHGIIEPVTGYGKGRYHFRS”, with 0.204. The figure for “HMDVIDDAQAMEIALEDAGLSMDDLDRYELELHTKRSELVYSIELKSGTEEYEYDLRAADGTILKRDTDF” is 0.0166; for “HMDVLDVADNVNDDMSFADAFAAARSEVGAGGIFYWHGKAYGTYYENEWAGMSEEDKADYWDAVARTTS” it is -0.144. The figure for “HMDVLSPEEWIEFRTAYNNNRYISQYGSKGATIEDDYATRLAMIGGKESYYFLNDPRWTEPGYGNLK” is -0.5; for “HMDVMNEIQQKAFDIYIQSASLKNDFTPISERALAKKLHDMGLKSSMSAIGRWKKKFGWVQSLQNKVTLA” it is -0.173; for “HMDVNKDLLGETLEKAKSYKADDWRKASYEALQKAIVEAEAVYKDEEADQVAVDRKVAALNKAINNLEAKG” it is 0.475. Turning to “HMDVNPETLSYYIERADISLDELRTSVKGIDLFLTGEKQPTFNQISNIAKKLNIPTGLLLINKPIEI”, the “soluble fraction (log2)” value is -0.645. The figure for “HMDVNSRIRQFLKKMKITVQTFESSIGKTNGYIAHTKSPTAGVLAEIAKVYPDLNLDWLITGEGEMLKN” is -1.42; for “HMDVPTSSITEVKKSPMDVFAQARKAETGVYIFNREKIAGVMLTKEQYEALVEELNTLRDTL” it is -0.68. The figure for “HMDVQEILGALSPDEKAAIGQLTSGEKHIDQIIAATRLPAARITSALTLLQIKGYVRALPGKRFSLTEKQ” is -1.87. The figure for “HMDVQPTTTKTMFYTVQQGETLFSISRKFGISVEEITKKNPLASSGLTVGMELLLPEKKEINSTIQS” is 0.0149. For the sequence “HMDVSEITTIKWIIKETKLGINEKILIYVNSKNFTVETLMEGFEIMSKYLVENVSSDKIVYIKN”, the “soluble fraction (log2)” value was determined as 0.0119. Then “HMDVTDRLARRLQGLRSAQGLSLDALAARSGVSRSNISLIERGQSSPTATVLDKLSAALGVTLAALFEEP”, with -1.04.

Take “HMDWVAYGAELRRRRLLAGWTVAELSRRINLSGMTIHQIEKGRGRLRPSELTLAKLAAALGMPTP”: the “soluble fraction (log2)” value was -3.58. Then “HMDYEVPEELEEKFSENPQFKEAFDNLTPGRQHQYIYHISQAKRSQTRINRIEKYYEHILNGKGMQD”, with 0.111; and “HMDYGTATASAILYLEKIDPENPYLLLAKDTITTNPKMSVNFALKGIIESKKGEKEENLNKALEIMSSL”, with -0.144; and “HMDYKSNLQEMVQTTKKSVTYELVKEEGPAHDRTFTMNVIVDGIVLGTGTAKSKKEAEQEAAHQALEKKA”, with -0.253.

For “HMDYTGIPQSLLDLMKKDNIMPMQIQRAVAERNYYPVDTPISNYDPMFIEAKLVGAWDQVLNVISHLDLP”, the “soluble fraction (log2)” value is -1.25. Then “HMDYTPIEVKDLPQAIQDALTKNFSEYTVKSAAYQEDEDGVKIYQVTVVDEEGTEANIFFTEKGE”, with 0.206; and “HMEADERRNEILDAAETLITEKGYSKTTIIDILNQVGIAKGTFYYYFKSKEEVMDAIIERFI”, with -2.41.

As to “HMEAEGLDFAPMPGEIGKKLWQEVSKEAWAGWLKHQTMLVNENRLSFVDPAARKYLTEQTEAYFFG”, the “soluble fraction (log2)” value was 0.131. The figure for “HMEAEMLYQVKVKITNLVIRSGAGAIYPIVKRYASGVLPIYEEKNGYGKIAVGQWISLSPEFVERVD” is -3.13; for “HMEAEPRLLDLPPGTRAGRLDKVLAQLLPEHSRSRLQGWIERGGVLVNGKEASVRQVVGPGDQLTVWEEAA” it is -0.0507. The figure for “HMEAEQLEAIRSALQQLSDMNRTVFNLHVVDGYKHEEIAAMLNITTGTSKAHLHRAKKRLRELID” is -1.04. The figure for “HMEAEVIKTASDMADRNGLHNVSLKAIAENLGIRTPSLYNHIGSLDELLREIAHSGMRTMNE” is -0.0854; for “HMEAFAEAVASMLRKLQPEFAIDLVGPRELLVNGRRLDLENLYRMVNHEPVRGQEIVEHYLDQLFAG” it is -1.17. Regarding “HMEAGLRMPEQLTAFSALALLQKVRDSGPLTDAQKEQLDADVLRIEASHFGKADREALELEEILKQWLSRV”, the “soluble fraction (log2)” value came out at 0.149. The figure for “HMEAKSSTKALLDVVLGRNGVSTANVAKSLNISVQNASTRLKKLSSEGVIMRSEVSSPTGGIEFIYS” is 0.109; for “HMEAKTSNPDYHARLGLTEGEGNDSALGVSVKAAEGGFGLLFGNKVGSDQLVRFANEDQVWLVNRALS” it is 0.165. The figure for “HMEALNIEQKKVEIINVLLEKGKGKGRLSYKEISDQIDTVELDKDQMDELYETLMTNGIEIV” is 0.00136; for “HMEALPSNLRRLRLEAQLTLDRLGALSGVSRAMISKIERGASVPTATMLGKLAAALQVSLSQLL” it is -1.18; for “HMEAMITEVKRINYGLISDISKSLDPFKSEGGHIIVDKRTNTFILTDLRANIEKMLWSIEIMD” it is -0.196. Turning to “HMEAPNELLVPEGARPARADRVLAAAFPEHSRTALQRAFDAGLVRRANLVLSRDTAVAGGDRIAFSLPAV”, the “soluble fraction (log2)” value was 0.0788. The figure for “HMEARYQLREVSLDGLRSGMILNADVLSTDGVLMARKGLEVSGLLRSRLEAFAKMERIEPTFKVLVPIAPP” is -2.19. The figure for “HMEASSTAIQAMIRRLIDDENPRKPLSDAKLADLLKSSGIPVARRTVAKYREAMNISASHERVRI” is -0.793; for “HMEATEFYLEDLTGQMYNDVVNDEKYAGKIVFEKEEVQSDGEEAIGQILNQRPAGNMNVRIGTTVTLVVNA” it is 0.242. The figure for “HMEATVGSRVRLARIGLTLTQKQLAQAVGVSANHLAMVERGSKHASEDLLQRIATATHTTYEWLMGTSEHQ” is -2.43; for “HMEAVIENAAIIKQNSGGYAVRATVNGVDLGMKPVERATALLYFSLTDKLEKDRLLSHTLQKTYGDLSA” it is -0.212; for “HMEAYLPVTVVSDGKILTGNLEKAGKNEKWLENVLSELKTDVKNTLLLTVDPKDGLIFYPKG” it is 0.408. Regarding “HMEAYMVPNVKNKTLNEAQQALSNQKLKGLVIDSSYVKGVPDGMVLDQNPAGGARVKEGRTIYLTVTTS”, the “soluble fraction (log2)” value was 0.237. The figure for “HMEDADERRALEVLNQLLDLPEREQEAALAALSLPPALARRVRSLLSVQTRAADLFDTAPSP” is 0.0142; for “HMEDAFLQRLISIIEANLSNVDFNVKMLAEQLNMSQPTLYRKVKQRSELSVIDMIRSIRILSLIHISEPTR” it is -1.07; for “HMEDDRLIQNLLLTAKNLVMDVGRMDESALAENEDTVRTAMLFALGYLYENRSNPDYHKLTLNLRSILFA” it is -0.38. Then “HMEDEISLGAINVPRGSVIVTAGGARLVEGSDYTVDYYSGTVKILNKSLLDAGTPINVSLET”, with -0.0249.

Source of the values: the domain aggregation screens of Martell et al. (2025).
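Also: 20 min heating vs room temperature control held 20 min.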
